In patent US20040152193A1 (LUDWIG INSTITUTE FOR CANCER RESEARCH, published 2004):

Key:
[1] = molecular target: HLA-A*0201 (human); test: cell-based or functional assay
[2] = molecular target: HLA-A*0201 (human); test: cell-based or functional assay; remark: listed apart in the source

| Binder | Competitor [µM] 50% [1] | Relative competitor activity [1] | Relative Competitor Activity, Exp3 [2] |
| --- | --- | --- | --- |
| EVDPIGHLY [MAGE-3 TRAP 168-176 peptide EVDPIGHLY] | > 100 µM | < 0.6 ratio to SEQ ID NO: 2 |  |
| ILTVILGVL [Melan-A 32-40 nonapeptide ILTVILGVL] |  |  | 2 ratio to SEQ ID NO: 2 |
